± gives the half width of the 95% confidence interval.
Assay: folding stability dG unfold (combined trypsin and chymotrypsin); higher = more stable
In short: (§1)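 Sequencing followed digestion of designed mini-proteins with trypsin and chymotrypsin, each at 11 concentrations in threefold dilutions together with a no-protease condition. The mini-proteins were under 80 residues, had no cysteine, sat in a PA-tagged cDNA display construct, and were kept only if AlphaFold2 dimer inter-PAE was above 15. From the counts, Bayesian fitting gave K50, and unfolding free energy was derived against a sequence-predicted unfolded-state K50 and a shared folded-state K50, per protease or combined.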

Sequence | folding stability dG unfold [kcal/mol]
SAGGLPEEVEKLAEILAKLPPVVPVPVTFPDGVEVVYFPPTGFVAVRFYERDENGEWVLVGETFFPVSAGGS [r16_243_TrMRF] | 2.98 ± 0.05
SAGGSAMFVVVEVESPEELRELVEEEDPSVFLLPTEDGEERLVVVDPENPENIRVIPLERPELLAPSAGGSA [r15_11_TrMRF] | 0.27 ± 0.068
SEEPVEERDIVVKPGEEVKLELPEEPETVRVYVFNEDGELIEEREFPPGATPEELEGLKLPPGAVVRIVRSA [r9_215_TrROS_Hall] | 2.2 ± 0.045
SIEIYEGPEEAEEMAEENGTPVIPIPPDMNLSEILKQLKNQPGLPPDQKIVIVIQWEPGQWYVIRIPIKPSA [r9_314_TrROS] | 2.53 ± 0.091
SKKKKEKKKKEKEKKEKKKVIVLSEEELLEKVRELAKKGKKVKIVVKTPDKELAERLAKEAEELGVEVEVSA [r9_468_TrROS_Hall] | 1.31 ± 0.13
SAAFAIKAIATPPNGKKYEILALDNGEGVLVFIENGSKEIPLEELIKLIENNPELKIEKIEIRPLSEFLSAG [r14_336_TrMRF] | 0.611 ± 0.17
SAGGSAGGNGPPDIKIKIEILEVHPGHRDPDGKYYFRVRVEIEYPNKPVKVDFPMPADDAKDLISAGGSAGG [r6_724_TrROS] | 3.66 ± 0.15
SAGGMKITLPPGAEITEVFELPDGQLLLRVRHKDTGKTEVVPASDLEIEIEPGEEVEVEIFRVPKEDLSAGG [r13_173_TrROS_Hall] | 1.39 ± 0.14
SAGGPKPKTYDIMIPFDSEEEAEKLMENPEWAKEIAKEIAPLFPGYDIKVEVSWHPETGYFMVKITVSAGGS [r16_320_TrROS] | 4.01 ± 0.13
SAGGSAGGSAGMTVTTITKTYPFDPNKSLSFTVPPGATITDKKTDADIAKGTVTVTVTVASAGGSAGGSAGG [r11_701_JUSTAS] | 0.436 ± 0.13
SAGMEEEEVVLKIRVKDPETGEEKTFEVKLKDIEKVEVDEDGNIRIYLKEDGKEITIPADKITEVELLSAGG [r19_416_TrROS_Hall] | 3.71 ± 0.089
SELEDMTPEQLRERIRELLEELREERPGEEVEITIEELLERLPGMSREQLAEILGLTEEELENRTITIRASA [r9_525_TrROS_Hall] | 2.35 ± 0.14
KTIMIWFPFKSWEDVRNLIRDLARELNLPPGRDVDVKVERHPNNGYFRVTVTVSNPNGEKIDITIWFPMWDS [r1_84_TrROS] | 4.91 ± 0.16
SAGGSAGGSMPVITVDPSIKEFKDEKGNKYLLTPVTVTLPNGVPVTVVYTTDPSTGKTTPATSGSAGGSAGG [r6_298_JUSTAS] | 0.62 ± 0.1
SAGGYELELVFRFKLELKVGDGTLSFDLDLVIRIPLEPPAVPIGVEVKEDGSLVLTYPNGLKAEIPLSAGGS [r16_136_TrMRF] | 3.93 ± 0.087
SAGGSAGGSAGGSKYEIEILKIEELEDDSYRITAKINIPEAGTTEEITLTVPKGVELKLSAGGSAGGSAGGS [r4_133_TrMRF] | 1.23 ± 0.072
SAGGSAKKVRIEIERNADGTLRITVTLPDGTKKEITVDKPGMTLEEIAKKLGLPEGAEITEIERVPSAGGSA [r15_167_TrROS_Hall] | 2.83 ± 0.075
SAGGSAGGSAGGMIVIEVERKEGEEERKEVIVIPNDPEKAEAEAKKLAEEGPVEKVTIKKESAGGSAGGSAG [r3_310_JUSTAS] | 1.04 ± 0.28
SAGGSVITEEEKEKIKKEYPNLDIKLKALKPGETITYPNGTKVYGSPNGFLVEITNPDGTKTVIKESAGGSA [r2_166_JUSTAS] | 0.604 ± 0.11
SMKLKLYDPATGKWYELTYDPAKGTVTITYPDGKVITRPVKSIEVNPETGTITITFPDSTETFTVPESLISA [r9_325_JUSTAS] | 3.79 ± 0.066
SAGGGSMTTVRLTREINLPSSVSDEEIIEEIKEELPENYEILEVKIEKDPKTGKYYIEAEVKIPKLGSAGGS [r16_396_JUSTAS] | 1.88 ± 0.056

Assay: folding stability dG unfold from trypsin proteolysis; higher = more stable
In short: as §1

Sequence | folding stability dG unfold [kcal/mol]
SAGGSAGGSAAEVEVETLELEIDGVKITVTRVRNADGELLYFARIEVRPAPPPPPVSLEDLSAGGSAGGSAG [r3_68_TrROS_Hall] | 3.02 ± 0.093
SAGGMKPGQPWHEIEVQREIDLPPGQISAEEIADLIAELFPGFRVEDFRIEFTGKKWRIDVTIYIPYSAGGS [r8_202_TrROS] | 2.56 ± 0.073
SAGGSAGGSAGGPNIKIKDVHEHPPEDGNPIVMFEIKAKDDDGEKVYIIITPDKIHIMPISAGGSAGGSAGG [r7_960_TrROS] | 1 ± 0.07
SAGGSAGGSMPPVVLEVKDPESGKVTTLFFFPPTGEALVVPPDGSVFYEPFTSLDELVERLAGSAGGSAGGS [r12_511_TrMRF] | 1.4 ± 0.055
SAGGSAGGSAGGKVLHVPYENIEEKIKEAEEKYPNKEILIHAYLPNGKLLKTIKIKVKKSAGGSAGGSAGGS [r10_741_TrMRF] | 1.29 ± 0.026
SAGGIRIDDEGMIQIYFPGWRHTIPIKPNLEITEITIPDDGYIKITFRIPGKTVKHEFPMLPPGQEISAGGS [r16_635_TrROS] | 2.35 ± 0.082
SAALAELLLNEGYEVRIEVEVREVRPRTLPGGGTTVELDITVRIELRPPPIPPPPLDPRLLRDEDGHLRSAG [r14_569_TrMRF] | 2.35 ± 0.037
SAGPPPVKVTVTADYVIEDGKPIVTYTLTFPDGSTTTVTSDPETLVEWLKQHYPDIDVLNFNSGTAPAASAG [r5_25_JUSTAS] | 2.78 ± 0.068
SAGGSAGGSITPEEAKALAEEIKKALGVPDVEVLEIRVERDPERDFYTADIVIRLPDGSVIRASAGGSAGGS [r12_508_TrMRF] | 2.05 ± 0.051
SMKINVVINITLPDGTTVTSTLNLTESEIEKTIKEKIPSSYKVEITKKDPVDPAKLPPGSSINVDLTVNLSA [r9_803_JUSTAS] | 1.31 ± 0.079
SMKIEIIERNEDGEYVLVRITFEDGEEITIVAKTEEEAKEAAKEIAKELFPDVKIKKIEVVPLEDLPEELSA [r9_137_TrROS_Hall] | 1.62 ± 0.14
SAGGLLPLLKEIAEALGLPEIESLSFDPETGELTLRFRGPEPYLLRIPFRPVKDGGIPLDIEVYPTDLSAGG [r13_410_TrMRF] | 2.86 ± 0.06
SAGGSAGGSAGGEIEVKEGEVVLVRLPDGTLLLYDKNTRRLYRFRFKDGKLEVEELELPESAGGSAGGSAGG [r7_527_TrROS_Hall] | 3.35 ± 0.06
SAGGSAGGTATLVLPAAAFPSRPDGSLGLEEIRDVARPIAQEAFGTDDITLDVESHPDGFVTITFSSAGGSA [r15_562_TrMRF] | 0.642 ± 0.027
SAIEIYIYPDNWMISIEPPNPNGPEKEIMIPIDKDDLKNPEFLKEIADEIMENGIPVEADIMPPGQPIPSAG [r14_60_TrROS] | 0.857 ± 0.27
SAGGGTYIEIKVTYSDGTTETFTVPAKPEDIETVVKEIEDKLKELGGTITSIKIENGKITIEATIPDSAGGS [r16_662_TrMRF] | 2.41 ± 0.19
SAGGKKIEIKEENGSLVIKVDGYLVTIEPIDGKLVATVVKKDKKTKKWKIVETKILTLDEILELLKKSAGGS [r8_174_TrROS_Hall] | 1.91 ± 0.057
SAGGSAGGSAGGAKKAIEEAIKAGYLPYEDPESGKIHFYFPTPDGTIHKLTLFVAPEEESAGGSAGGSAGGS [r10_1173_TrMRF] | 0.591 ± 0.03
SAGGSAGGSAGGSSKVIEVNGYKITVTDNSVEIYNKKTGKKITVNADNPEVQELLKKLLSAGGSAGGSAGGS [r4_353_TrROS_Hall] | 3.6 ± 0.089
SAGGSAGGSKPDTIKITFPDGFEIEINGPGMIMIRFPEQGYIFRIPIDPDKNEIKIEIVEPLPSAGGSAGGS [r12_539_TrROS] | 2.43 ± 0.11
SAGGKITIEVTYNKETGEITIRITFNGKTIEIKIKVPGLSEEEVKKLAEELAKKLKEKYGIDKVEITSAGGS [r16_249_TrROS_Hall] | 4.36 ± 0.45

Sequence | folding stability dG unfold [kcal/mol]
SAGGLPEEVEKLAEILAKLPPVVPVPVTFPDGVEVVYFPPTGFVAVRFYERDENGEWVLVGETFFPVSAGGS [r16_243_TrMRF] | 2.44 ± 0.042
SAGGSAMFVVVEVESPEELRELVEEEDPSVFLLPTEDGEERLVVVDPENPENIRVIPLERPELLAPSAGGSA [r15_11_TrMRF] | 0.535 ± 0.042
SEEPVEERDIVVKPGEEVKLELPEEPETVRVYVFNEDGELIEEREFPPGATPEELEGLKLPPGAVVRIVRSA [r9_215_TrROS_Hall] | 1.32 ± 0.036
SIEIYEGPEEAEEMAEENGTPVIPIPPDMNLSEILKQLKNQPGLPPDQKIVIVIQWEPGQWYVIRIPIKPSA [r9_314_TrROS] | 2.05 ± 0.059
SKKKKEKKKKEKEKKEKKKVIVLSEEELLEKVRELAKKGKKVKIVVKTPDKELAERLAKEAEELGVEVEVSA [r9_468_TrROS_Hall] | 1.45 ± 0.059
SAAFAIKAIATPPNGKKYEILALDNGEGVLVFIENGSKEIPLEELIKLIENNPELKIEKIEIRPLSEFLSAG [r14_336_TrMRF] | 0.667 ± 0.11
SAGGSAGGNGPPDIKIKIEILEVHPGHRDPDGKYYFRVRVEIEYPNKPVKVDFPMPADDAKDLISAGGSAGG [r6_724_TrROS] | 2.93 ± 0.11
SAGGMKITLPPGAEITEVFELPDGQLLLRVRHKDTGKTEVVPASDLEIEIEPGEEVEVEIFRVPKEDLSAGG [r13_173_TrROS_Hall] | 1.38 ± 0.069
SAGGPKPKTYDIMIPFDSEEEAEKLMENPEWAKEIAKEIAPLFPGYDIKVEVSWHPETGYFMVKITVSAGGS [r16_320_TrROS] | 3.21 ± 0.18
SAGGSAGGSAGMTVTTITKTYPFDPNKSLSFTVPPGATITDKKTDADIAKGTVTVTVTVASAGGSAGGSAGG [r11_701_JUSTAS] | 0.345 ± 0.053
SAGMEEEEVVLKIRVKDPETGEEKTFEVKLKDIEKVEVDEDGNIRIYLKEDGKEITIPADKITEVELLSAGG [r19_416_TrROS_Hall] | 3.15 ± 0.11
SELEDMTPEQLRERIRELLEELREERPGEEVEITIEELLERLPGMSREQLAEILGLTEEELENRTITIRASA [r9_525_TrROS_Hall] | 2.08 ± 0.11
KTIMIWFPFKSWEDVRNLIRDLARELNLPPGRDVDVKVERHPNNGYFRVTVTVSNPNGEKIDITIWFPMWDS [r1_84_TrROS] | 3.42 ± 0.1
SAGGSAGGSMPVITVDPSIKEFKDEKGNKYLLTPVTVTLPNGVPVTVVYTTDPSTGKTTPATSGSAGGSAGG [r6_298_JUSTAS] | 0.671 ± 0.059
SAGGYELELVFRFKLELKVGDGTLSFDLDLVIRIPLEPPAVPIGVEVKEDGSLVLTYPNGLKAEIPLSAGGS [r16_136_TrMRF] | 3.32 ± 0.14
SAGGSAGGSAGGSKYEIEILKIEELEDDSYRITAKINIPEAGTTEEITLTVPKGVELKLSAGGSAGGSAGGS [r4_133_TrMRF] | 1.21 ± 0.017
SAGGSAKKVRIEIERNADGTLRITVTLPDGTKKEITVDKPGMTLEEIAKKLGLPEGAEITEIERVPSAGGSA [r15_167_TrROS_Hall] | 2.97 ± 0.067
SAGGSAGGSAGGMIVIEVERKEGEEERKEVIVIPNDPEKAEAEAKKLAEEGPVEKVTIKKESAGGSAGGSAG [r3_310_JUSTAS] | 0.243 ± 0.11
SAGGSVITEEEKEKIKKEYPNLDIKLKALKPGETITYPNGTKVYGSPNGFLVEITNPDGTKTVIKESAGGSA [r2_166_JUSTAS] | 0.638 ± 0.026
SMKLKLYDPATGKWYELTYDPAKGTVTITYPDGKVITRPVKSIEVNPETGTITITFPDSTETFTVPESLISA [r9_325_JUSTAS] | 3.42 ± 0.089
SAGGGSMTTVRLTREINLPSSVSDEEIIEEIKEELPENYEILEVKIEKDPKTGKYYIEAEVKIPKLGSAGGS [r16_396_JUSTAS] | 0.904 ± 0.027
